In PMC3349548, “UBXN7 docks on neddylated cullin complexes using its UIM motif and causes HIF1α accumulation” (BMC Biology, 2012):

Key:
Settings in all cases: both partners purified
[1] = target: T1, CUL2/RBX1, unmodified (full-length CUL2, GST cleaved off) (human | , UniProt Q13617-1 1-745; P62877 1-108); assay: co-IP; 1.5 μg CUL2/RBX1 (unmodified or neddylated in vitro) pre-incubated with 1.5 μg bacterially expressed Flag-UBXN7 for 30 minutes, then one hour with anti-Flag beads in buffer D
T1 construct: CUL2, human, full-length; RBX1, amplified from EST IMAGE 3138751; also called unmodified CUL2; non-neddylated CUL2; source: Spodoptera frugiperda 21 cells (baculovirus), purified (GSH-Sepharose, GST cleaved with PreScission protease)
T1 sequence (Q13617 whole entry, chain 1 of 2): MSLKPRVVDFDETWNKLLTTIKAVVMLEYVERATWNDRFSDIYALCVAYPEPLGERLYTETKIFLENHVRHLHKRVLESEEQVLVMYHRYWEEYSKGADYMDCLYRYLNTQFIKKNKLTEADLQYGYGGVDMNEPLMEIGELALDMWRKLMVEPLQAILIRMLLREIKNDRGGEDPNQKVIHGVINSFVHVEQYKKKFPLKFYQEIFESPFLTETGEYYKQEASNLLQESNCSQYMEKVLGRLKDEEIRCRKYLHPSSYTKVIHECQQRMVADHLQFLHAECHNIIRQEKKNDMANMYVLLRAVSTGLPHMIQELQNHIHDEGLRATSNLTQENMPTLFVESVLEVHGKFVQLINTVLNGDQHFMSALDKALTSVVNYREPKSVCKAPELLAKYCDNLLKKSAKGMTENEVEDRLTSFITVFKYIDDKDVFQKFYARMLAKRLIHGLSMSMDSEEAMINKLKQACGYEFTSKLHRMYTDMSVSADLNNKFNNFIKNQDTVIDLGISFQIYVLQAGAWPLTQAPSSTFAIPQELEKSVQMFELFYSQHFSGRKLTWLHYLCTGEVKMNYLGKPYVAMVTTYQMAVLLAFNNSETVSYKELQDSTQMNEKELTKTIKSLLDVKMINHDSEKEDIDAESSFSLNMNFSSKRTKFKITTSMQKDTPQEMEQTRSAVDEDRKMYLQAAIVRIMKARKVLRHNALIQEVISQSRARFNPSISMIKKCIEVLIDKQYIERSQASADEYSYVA
T1 sequence (P62877 whole entry, chain 2 of 2): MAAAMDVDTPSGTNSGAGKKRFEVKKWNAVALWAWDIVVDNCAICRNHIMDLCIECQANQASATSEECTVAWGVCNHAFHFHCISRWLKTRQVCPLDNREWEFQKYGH

[2] = target: T2, CUL2/RBX1, neddylated in vitro (partially neddylated full-length CUL2) (human | , UniProt Q13617-1 1-745; P62877 1-108; Q15843 1-76, NEDD8 conjugated in vitro on only a fraction of CUL2; Lys689 is the site of NEDD8-conjugation in human CUL2); assay: as above
T2 construct: CUL2, human, full-length; RBX1, amplified from EST IMAGE 3138751; NEDD8 (BostonBiochem) conjugated to CUL2 in vitro; RBX1 substoichiometric; also called neddylated CUL2; CUL2 that was in vitro neddylated; copies: + +
T2 sequence (Q13617 whole entry, chain 1 of 3): as the sequence (Q13617 whole entry, chain 1 of 2) above
T2 sequence (P62877 whole entry, chain 2 of 3): as the sequence (P62877 whole entry, chain 2 of 2) above
T2 sequence (Q15843 1-76, chain 3 of 3): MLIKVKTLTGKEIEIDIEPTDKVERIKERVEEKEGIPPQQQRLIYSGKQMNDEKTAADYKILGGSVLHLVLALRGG

[3] = target: T3, ubiquitin-agarose (UniProt P0CG47 1-76); assay: pull-down; 25 μg recombinant UBXN7 variant incubated for one hour with 10 μl NEDD8- or ubiquitin-agarose in buffer D (50 mM HEPES/KOH pH 7.5, 60 mM KOAc, 5 mM MgCl2, 5% glycerol, 0.1% Triton X-100)
T3 construct: ubiquitin coupled to agarose beads; source: bought: BostonBiochem (ubiquitin-agarose)

[4] = target: T4, Flag-CUL1(324-776)/GST-HA-RBX1 complex, non-neddylated (mock neddylation) (UniProt Q13616 324-776; P62877 1-108); assay: pull-down; Flag-CUL1(324-776)/GST-HA-RBX1 (about 1 μg) immobilized on GSH-sepharose, neddylated or mock-treated, incubated for one hour with 3 μg Flag-UBXN7 variant in buffer D; naked beads as control
T4 construct: RBX1; also called non-neddylated CUL1 fragment; CUL1/RBX1 complex; source: E. coli BL21, co-expressed, immobilized from lysate on GSH-sepharose
T4 sequence (Q13616 324-776, chain 1 of 2): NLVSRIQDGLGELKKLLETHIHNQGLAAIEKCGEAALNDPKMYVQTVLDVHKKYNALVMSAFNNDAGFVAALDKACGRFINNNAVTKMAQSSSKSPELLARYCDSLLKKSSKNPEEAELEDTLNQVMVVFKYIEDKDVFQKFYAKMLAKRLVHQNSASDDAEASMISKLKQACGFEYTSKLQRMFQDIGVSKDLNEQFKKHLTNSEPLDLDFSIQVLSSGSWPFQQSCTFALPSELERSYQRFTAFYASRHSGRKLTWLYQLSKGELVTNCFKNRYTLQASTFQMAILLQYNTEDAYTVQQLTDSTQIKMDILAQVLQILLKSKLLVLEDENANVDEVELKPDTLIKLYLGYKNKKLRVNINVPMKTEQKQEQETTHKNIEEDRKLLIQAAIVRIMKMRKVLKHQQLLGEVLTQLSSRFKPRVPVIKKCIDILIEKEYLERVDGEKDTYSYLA
T4 sequence (P62877 whole entry, chain 2 of 2, the tested form may be a part): as the sequence (P62877 whole entry, chain 2 of 2) above

[5] = target: T5, Flag-CUL1(324-776)/GST-HA-RBX1 complex, neddylated in vitro (mixture of neddylated and non-neddylated) (UniProt Q13616 324-776; P62877 1-108; Q15843 1-76, NEDD8 conjugated in vitro (mixture of neddylated and non-neddylated); site not stated); assay: as above
T5 construct: RBX1; NEDD8 (BostonBiochem) conjugated to the CUL1 fragment in vitro; also called neddylated CUL1 fragment; source: E. coli BL21, co-expressed, immobilized from lysate on GSH-sepharose, neddylated in vitro on the beads; copies: + +
T5 sequence (Q13616 324-776, chain 1 of 3): as the sequence (Q13616 324-776, chain 1 of 2) above
T5 sequence (P62877 whole entry, chain 2 of 3, the tested form may be a part): as the sequence (P62877 whole entry, chain 2 of 2) above
T5 sequence (Q15843 1-76, chain 3 of 3): as the sequence (Q15843 1-76, chain 3 of 3) above

Measured: binding result

B1: bacterially expressed Flag-UBXN7 (wild-type, full length) (natural protein, human, UniProt O94888 1-489, looked up)
chain: MAAHGGSAASSALKGLIQQFTTITGASESVGKHMLEACNNNLEMAVTMFLDGGGIAEEPSTSSASVSTVRPHTEEEVRAPIPQKQEILVEPEPLFGAPKRRRPARSIFDGFRDFQTETIRQEQELRNGGAIDKKLTTLADLFRPPIDLMHKGSFETAKECGQMQNKWLMINIQNVQDFACQCLNRDVWSNEAVKNIIREHFIFWQVYHDSEEGQRYIQFYKLGDFPYVSILDPRTGQKLVEWHQLDVSSFLDQVTGFLGEHGQLDGLSSSPPKKCARSESLIDASEDSQLEAAIRASLQETHFDSTQTKQDSRSDEESESELFSGSEEFISVCGSDEEEEVENLAKSRKSPHKDLGHRKEENRRPLTEPPVRTDPGTATNHQGLPAVDSEILEMPPEKADGVVEGIDVNGPKAQLMLRYPDGKREQITLPEQAKLLALVKHVQSKGYPNERFELLTNFPRRKLSHLDYDITLQEAGLCPQETVFVQERN
notes: UBXN7, human, full length, in a modified pGEX6P-1 vector; also called wild-type UBXN7; recombinant UBXN7; source: E. coli BL21 DE3, purified (GSH-sepharose, TEV cleavage, Superdex 75)
binds: all assays above
